Data as given in the nanobody polyreactivity screen of Harvey et al. (2022).

assay: yeast display, Sf9 membrane polyspecificity reagent, FACS + sequencing; frameworks hold sequencing errors
In short: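 Galactose-induced (36–48 hours) yeast carrying a synthetic nanobody display library were exposed to 10% biotinylated, detergent-solubilized Sf9 membrane reagent at 4 °C for 1 hour. FACS followed streptavidin microbead enrichment, using low and high (top ~1%) gates for expression (anti-HA) and reagent binding (streptavidin). Colony PCR, MiSeq 2 × 250 sequencing and CDR-length filtering followed. Labels for polyreactivity reflect the gate of origin.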

Sequence | polyreactivity (PSR sort gate)
QVQLVESGGGLVQAGGSLRLSCAATGSTLVPNAMGWYRQAPGKERELVAAITRGTITHYADSVKGRFTISRDNAKNTVYVQMNSLKPEDTAVYYCNADVSLDDYDYWGQGTQVTVSS | low polyreactivity
QVQLVESGGGLVQAGGSLRLSCAASGRTFYGNAMGWYRQAPGKEREFVAGISWRGGRTYYADSVKGRFTISRDNAKNTVYLQMNSLKPEDTAVYYCAASAGYRGRKQYHENGYWGQGTQVTVSS | high polyreactivity
QVQLVESGGGLVQAGGSLRLSCAASGSTFYYYAMGWYRQAPGKERELVAAIDWSGESTYYADSVKGRFTISRDNAKNTVYLQMNSLKPEDTAVYYCAAVRSAQRWRRYYYWGQGTQVTVSS | low polyreactivity
QVQLVESGGGLVQAGGSLRISCAPSGSNINAYAIGWYRQSTGKERELVARITRGDGTTYYADSVKGRFTISRDNAMNTVYLQMNRLKPEDNAVYYCNRVEYYSVWGYDYWVQGTQVTVSS | low polyreactivity
QVQLVESGGGLVQAGGSLRLSCAASGSTFDRYTMGWYRQAPGKERELVAAISESDGSTYYADSVKGRFTISRDNAKNTVYLLMNSLKPEDTAVYFCAAEWTHYWWYQYDFWGQGTQVTVSS | high polyreactivity
QVQLVESGGGLVQAGGSLRLSCAASGFTFGNYAMYWVRQAPGKERELVAAINYSGGSTYYADSVKGRFTISRDNAKNTVYLQMNSLKPEDTAVYYCAADTYPASYDYWGQGTQVTVSS | high polyreactivity
QVQLVESGGGLVQAGGSLRLSCAASGRTFWSNAMGSYRQAPGKERELVAAINTSGGNTYYADSVKGRFTISRDNAKNTVYLQMNSLKPEDTAVYFCNTDGLVRNGPFYSWGQGTQVTVSS | low polyreactivity
QVQLVESGGGLVQAGGSLRLSCAASGRIFRGNAMGWYRQVPGKERELVAAISSGTRTTYADSVKGRFTISRDNAKNTVYLQMNSLKPEDTAVYYCAARTSNYPRWRVGGYSYDYWGQGTQVTVSS | high polyreactivity
QVQLVESGGGLVQAGGSLRLSCAASGFTFYKNTMGWYRQAPGNERELVAAISYRGGTYYADSVKGRFTISRDNAKTTVYLQMNSLKPEDTAVYYCNARYRGKYSSYGFWGHGTQVTVSS | high polyreactivity
QVQLVESGGGLVQAGGSLRLSCAASGGTFRAYVMGWYRQAPGKERELVAAISRSGTRTYYADSVKGRFTISRDNAKNTVYLQMNSLKPEDTAVYYCAAAAKSWLFDYWGQGTQVTVSS | high polyreactivity
QVQLVESGGGLVQAGGSLRLSCAASGRTFTYYAMGWYRQAPGKERELVAAISSRGGSTYYADSVKGRFTISRDNAKNTVYLQMNSLNPEDTAVYYCAAVHRFTRASRWPDFDYWGQGTQVTVSS | high polyreactivity
QDQLVESGGGLVQAGGSLRLSCAASGRTFRYNAMGWYRQAPGKERELVAAISGRGSSTYYADSVKGRFTISRDNAKNTVYLQMNSLKPEETAVYYCAALPASVRRPGWHDYWGQGTQVTVSS | high polyreactivity
QVQLVESGGGLVQAGGSLRLSCAASGFIFRPYAMGWYRQAPGKERELVATIRWGASSTHYADSVKGRFTISRDNAKNTVYLQMNSLKPEDTAVYDCNADGWYGAVYWWFYGFDYWGQGTQVTVSS | low polyreactivity
QVQLVESGGGLVQAGGSLRLSCAASGFIFYSSDMGWYRQSPGKERELVAAIDSRGVNTYYADSVKGRFTISRDNAKNTVYLQMNSLKPEDTAVYYCNVDAINWWDWEDFDYWGQGTQVTVSS | low polyreactivity
QVQLVESGGGLVQAGGSLRLSCAASGRTFSYYAMGWYRQAPGKERELVAAISYSGGRTYYADSVKGRFTISRDNAKNTVYIQMNSLKPEDTAVYYCAPVKSRPQYGYGYWVQGTQVTVSS | high polyreactivity
QVQLVESGGGLVQAGGSLRLSCAASGFIFSGNAMGWYRQAPGKERELVAAISGRGGRTYYADSVKGRFTISRDNAKNTVYLQMNSLKPEDTAVYYCAADNPYLGRKFDYWGQGTQVTVSS | high polyreactivity
QVQLVESGGGLVQAGGSLRLTCAASGFIFGANTRGWYRQAPGKERELVATISWSGGSTYYADSVKGRFTISRDNAKMTVYLQMNSLKPEVTAVYYCAAPGVTYGFRSVYWGQGTQVTVSS | low polyreactivity
QVQLVESGGGLVQAGGSLRLSCAASGRIFDYNTMGWYRQAPGKERELVAAITGGTGSTYYADSVKGRFTISRDNAKNTVYLQMNSLKPEDTAVYYCAAGFHKRVTPEILYDYWGQGTQVTVSS | low polyreactivity
QVQLVESGGGLVQAGGSLRLSCAASGIIFPRYAMGWYRQAPGKERELVAAITIGGRTNYADSVKGRFTISRDNAKNTVYLQMNSLKPEDTAVYYCAAQTYVPYYEYDYWGQGTQVTVSS | low polyreactivity
QVQLVESGGGLVQAGGSLRLSCAASGSIFKKNAMGWYRQEPGKERELVAAITRRGASTYYADSVKGRFTISRDNAKNNVYLQMNSLKREDTAVYYCAAPGKIGASFDNYYYWGQGTQVTVSS | high polyreactivity

Sequence | polyreactivity (PSR sort gate)
QGQLVESGGGLVQAGGSLRLSCAASGSIFGNAMGWYIQAPGKEREFVAAISSSGSSTYYADSVKGRFTISRDNAKNTVYLQMNSLKPEDTAVYYCAARPPRVSYEYWGQGTQVTVSS | high polyreactivity
QVQHVESGGGLVQAGGTLRLSCASSGRTLYYYTMGWYRQAPGKESELVAAISKSGGSTYYADSVKGRFTISRDNAKNTVYLQMNSLKPEDTAVFYCAADRSAYSRGYVRYIYWGQGTKVTVSS | high polyreactivity
QVQLQESGGGLVLAGGSMRLSCAASGSISAHAYMGWERQAPGKEREHVAGINYGDNTNYADSVKGRFTISRDNEHRVSADEQPETGRYRGVLLRGFLELFYYYIYWGQGTQVTVSS | high polyreactivity
QVQLVDSAAALVQAGGSQRLTCAASGLIFYYSVMGSYRQAPGKERELVARISTSGGSTYYADSVKGRFTISRDNAKNTVYIQMNSLKPEDTAVYYCAARGYRQYGWDCYCGQGTQVTVSS | low polyreactivity
QVQLVESGGGLVQAGGSLRLSCAASGRTFVWYVMGWYRQAPGKERELVAAISLRGGTTYYADSVKGRFTISRDNAKNTVYLQMNSLKPEDTAVYYCAIAGIRHVTSKFKGYHFGYWGQGTQVTVSS | low polyreactivity
QVHLVESGGGLVQAGGSLRLSCAASGRTFRLYAMAWSRQAPGKERELVARISRGGSTYYADSVKGRFTISRDNAKNTVYLLMNSLKREDTAVYYCAAEGWGLSHRYDYWGQGTQVTVSS | high polyreactivity
QVQLVESGGGLVQAGGSLRLSCAASGRIFDIYAMGWYRQAPGKERELVAGITSVGSTNYADSVKGRFTISRDNAKNTVYLQMNSLKPEDTAVYYCAKDYLKSAAPSPQGLTHYEYWGQGTQVTVSS | low polyreactivity
QVQLVESGGGLVQAGGSLRLSCAASGRIFRRYTMGWSRQAPGKERELVAAISSGGSTNYADSVKGRFTISRDNANNTVYLQMNSLKPEDTAVYYCAARFASRQHTIYYYWGQGTQVTVSS | high polyreactivity
QVQLVESGGGLVQAGGSLRLSCAASGFTFAKYAMGWYRQAPGKERELVAAISSNGGTTYYADSVKGRFTISRDNAKNTDYLQMNSLKPEDTALYYCAAYTYRRPSTFTKVAFDYWGQGSQVTVSS | high polyreactivity
QVHLVESGGCLVQAGGSLRLSCAASGFIFPTYAMGWYRQAPGKERELVATITTNAGGTHYADSVKGRFTISRDNAKNTVYLQMNCLKQEDTAVYYCAAKQYRPKQRKYWTRIYDYWGQGTQVTVSS | low polyreactivity
QVQLVESGGGLVQAGGSLRLSCAASGRTFRRYAMGLYRQAPGKERELVASISTSGGSTYADSVKGRFTISRDNAKNTVYLQMNSLKPEDTAVYYCAVRSPRYVRNGDYWGQGTQVTVSS | high polyreactivity
QVQLVESGGGLVQAGGSLRLSCAASGRTLRKYAMGWYRQAPGKERELVAAITTSGGSTYYADSVKGRFTISRDNAKNTVYLQMNSLKPDDTAVYYCNAARYYAYIGDYWGQGTQVTVSS | high polyreactivity
QVQLVESGGGLVQAGGSLRLSCAASGYIFAGNAMGWYRQAPGKERELVAAINSDGRTYYADSVRGRFTISRDNAKNSVYLQMNSLKPEDTAVYYCAVVRFYLGDYLVEFDYWGQGTQVTVSS | low polyreactivity
QVQLVESGGGLVQAGGSLRLSCAASGRIFDLYTMGWYRQAPGKERELVAAIRWSDGSTYYADSVKGRFTISRDNAKNTVYLQMNSLKPEDTAVYYCARDADPNIGGYYYWGQGTQVTVSS | low polyreactivity
QVQLVESGGGLVQAGGSLRLICAASGSTFGPYAMGWYRQAPGKERELVADITVSDGSTYYADSVKGRFTISRDNAKNTVYLQMNSLNPEDTAVYYCAAEIYYSFGYWGQGTQVTVSS | low polyreactivity
QVQLVETGGGLFQAGGSLRLSCAPCGSIFFSIAMGWYRQAPGKDRELVAAIDSGASSTYADSVKGRFTSSRDHAKNTVYLQINSLKPEDTAVYYFAADYPATGADGYDYWGQVTQVTVSS | low polyreactivity
QVQLVESGGGLVQAGGSLRLSCAASGFTFFYYDMGWYRQAPGKERELVADITTGGSTYYADSVKGRFTISRDNAKNTVYLQMNSLKPEDTAVYYCAALLYVSNSYRWWPWDGEDYWGQGTQVTVSS | high polyreactivity
QVQLVESGGGLVQAGGSLRLSCAASGGILRQNTMGWYRQAPGKERELVAAISSSGGRTYYADSVKGRFTISRDNAKNTVYLQMNSLKPEDTAVYYCNVPAKRYPYYIRQSTVYPGNYWGQGTQVTVSS | high polyreactivity
QVQLVESGGGLVQAGGSLRLSCAASGITFWTYAMGWYRQAPGKERELVARISKSGARTFYADSVKGRFTLSRDNAKNTVYLQMNSLKPEDTAVYYCAADFRSNYDYWGQGTQVTVSS | high polyreactivity
QVQLVESGGGLVQAGGSLRLSCAASGSNFAKNAMGWYRQAPGKERELVAAITSSGGSTYYADSVKGRFTISRDNAKNTVYLQMNSLNPEDTAVYYCARPNDWYHYHGWYWSIYRYDYWGQGTQVTVSS | high polyreactivity
